Experimental data as given in patent US20060045881A1, “Anti-cancer vaccines” (Board of Regents, The University of Texas System, priority 2004, published 2006).

Biological target: HLA-A2.1 (HLA-A*0201) on the surface of T2 cells (human)

## KLGEFYNQMM (modifications not checked) [Influenza B nucleoprotein peptide (aa 85-94), P04665 85-94]
  Median Channel of Fluorescence of HLA-A2 Expression on T2 (median channel of fluorescence): 194
